# Results published in article PMC11326307 (bioRxiv, 2024).
# T1: Snu23-DHFR (S. cerevisiae, UniProt Q12368 1-194, Cy5-TMP fluorophore bound to the DHFR tag)
# T1 sequence (looked up): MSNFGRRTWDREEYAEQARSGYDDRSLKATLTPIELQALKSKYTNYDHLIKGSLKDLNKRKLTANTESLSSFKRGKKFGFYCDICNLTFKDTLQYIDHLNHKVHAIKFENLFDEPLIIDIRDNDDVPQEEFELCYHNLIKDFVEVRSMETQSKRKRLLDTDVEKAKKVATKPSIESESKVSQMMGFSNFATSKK
# T2: Spp381-DHFR (S. cerevisiae, UniProt P38282 1-291, Cy5-TMP fluorophore bound to the DHFR tag)
# T2 sequence (looked up): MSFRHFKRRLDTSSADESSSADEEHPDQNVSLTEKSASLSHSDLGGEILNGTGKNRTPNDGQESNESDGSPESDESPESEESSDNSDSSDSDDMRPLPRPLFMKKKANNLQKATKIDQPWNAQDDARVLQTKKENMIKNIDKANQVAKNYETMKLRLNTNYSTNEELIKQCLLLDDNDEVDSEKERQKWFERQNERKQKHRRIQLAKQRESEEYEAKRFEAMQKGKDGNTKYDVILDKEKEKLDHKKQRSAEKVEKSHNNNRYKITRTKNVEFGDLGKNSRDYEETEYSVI
# B1: Prp38-SNAP (natural protein)
# chain: MAVNEFQVESNISPKQLNNQSVSLVIPRLTRDKIHNSMYYKVNLSNESLRGNTMVELLKVMIGAFGTIKGQNGHLHMMVLGGIEFKCILMKLIEIRPNFQQLNFLLNVKNENGFDSKYIIALLLVYARLQYYYLNGNNKNDDDENDLIKLFKVQLYKYSQHYFKLKSFPLQVDCFAHSYNEELCIIHIDELVDWLATQDHIWGIPLGKCQWNKIYNSDEESSSSESESNGDSEDDNDTSSES
# modifications: SNAP-Surface 549 dye (SNAP-DY549) on the SNAP tag
# Legend:
# Snu23-DHFR = target: T1, Snu23-DHFR; assay: colocalization single molecule spectroscopy
# Spp381-DHFR = target: T2, Spp381-DHFR; assay: colocalization single molecule spectroscopy
binder,measurement,setting,value
B1,event pairs (of those arriving together) with simultaneous release,Snu23-DHFR,77%
same,event pairs with simultaneous arrival at the pre-mRNA,Snu23-DHFR,91%
same,event pairs (of those arriving together) with simultaneous release,Spp381-DHFR,77%
same,event pairs with simultaneous arrival at the pre-mRNA,Spp381-DHFR,91%
